Reference: the supplement of paper PMC7877785
± gives the uncertainty stated by the source.

Assay: self-splicing fitness, log relative to wild type (ln ratio); higher = more splicing; Tetrahymena group I intron in knt gene, E. coli kanamycin selection, DiMSum; sequences stand for … in CUCUCU…GGAGGGAAAAGUUAUCAGGCAUGCACCUGGUAGCUAGUCUUUAAACCAAUAGAUUGCAUCGGUUUAAAAGGCAAGACCGUCAAAUUGCGGGAAAGGGGUCAACAGCCGUUCAGUACCAAGUCUCAGGGGAAACUUUGAGAUGGCCUUGCAAAGGGUAUGGUAAUAAGCUGACGGACAUGGUCCUAACCACGCAGCCAAGUCCUAAGUCAACAGAUCUUCUGUUGAUAUGGAUGCAGUUCACAGACUAAAUGUCGGUCGGGGAAGAUGUAUUCUUCUCAUAAGAUAUAGUCGGACCUCUCCUUAAUGGGAGCUAGCGGAUGAAGUGAUGCAACACUGGAGCCGCUGGGAACUAAUUUGUAUGCGAAAGUAUAUUGAUUAGUUUUGGAGUACUCGUGGUCG
Summary of the method: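 A randomised library covering all eight P1ex-region intron nucleotides was built with the intron in the knt kanamycin-resistance gene on pET-22b(+) and held in E. coli BL21(DE3). Cells were grown overnight at 37°C or 30°C on LB agar, with or without 25 μg/mL kanamycin, plus 100 μg/mL carbenicillin, 50 μM IPTG and 0.2% rhamnose, and pooled colonies were amplicon-sequenced on an Illumina HiSeq 2500. DiMSum fitness is the error-weighted combination of wild-type-normalised replicate fold changes, kanamycin versus none.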

Sequence | self-splicing fitness (ln) (30 °C) | self-splicing fitness (ln) (37 °C)
UUUUAGCAAUAUUACGGCAU | -2.8 ± 0.41 | -0.972 ± 0.29
CAUUAGCAAUAUUACGUAAU | -2.73 ± 0.19 | -1.96 ± 0.21
AUGAAGCAAUAUUACGCCGA | -0.724 ± 0.11 | -0.149 ± 0.15
CACAAGCAAUAUUACGUGCC | -3.26 ± 0.14 | -2.48 ± 0.14
CCCAAGCAAUAUUACGCCAG | -2.9 ± 0.19 | -3.07 ± 0.33
UGCAAGCAAUAUUACGCCAG | -2.88 ± 0.19 | -1.9 ± 0.26
CACGAGCAAUAUUACGUACA | -3.75 ± 0.37 | -2.49 ± 0.24
GGAGAGCAAUAUUACGGCAC | -1.39 ± 0.37 | –
GCCGAGCAAUAUUACGGUAG | -1.99 ± 0.15 | -3.24 ± 0.33
ACUCAGCAAUAUUACGCUGU | -3.46 ± 0.19 | -1.4 ± 0.17
ACCAAGCAAUAUUACGGACA | -0.841 ± 0.068 | -0.38 ± 0.072
UCACAGCAAUAUUACGUAGC | -2.87 ± 0.18 | -1.34 ± 0.21
CUUGAGCAAUAUUACGUAUA | -3.5 ± 0.2 | -2.96 ± 0.28
GGACAGCAAUAUUACGCAUA | -0.761 ± 0.094 | 0.314 ± 0.12
CCACAGCAAUAUUACGAACG | -0.247 ± 0.07 | -0.267 ± 0.075
GUGAAGCAAUAUUACGCACA | 0.0998 ± 0.15 | 0.512 ± 0.18
AGUAAGCAAUAUUACGUAGU | -3.22 ± 0.14 | -2.53 ± 0.16
GUCAAGCAAUAUUACGUCGG | – | -1.88 ± 0.18
AAUGAGCAAUAUUACGUACG | -3 ± 0.26 | -2.32 ± 0.24
UCUCAGCAAUAUUACGCUGU | -2.3 ± 0.21 | -1.17 ± 0.31
UGCUAGCAAUAUUACGUAGA | -2.3 ± 0.18 | -0.929 ± 0.17
CCAUAGCAAUAUUACGGAUA | -2.94 ± 0.21 | -1.81 ± 0.21
CCCCAGCAAUAUUACGGGGG | -4.74 ± 0.16 | -2.67 ± 0.12
GCUAAGCAAUAUUACGAGUU | -1.33 ± 0.082 | -0.818 ± 0.11
AAGAAGCAAUAUUACGUCCG | -0.7 ± 0.073 | -0.283 ± 0.099

Sequence | self-splicing fitness (ln) (30 °C) | self-splicing fitness (ln) (37 °C)
UCGUAGCAAUAUUACGCUUA | – | -1.1 ± 0.47
CUGAAGCAAUAUUACGUCAG | -4.14 ± 0.2 | -1.46 ± 0.14
GUGGAGCAAUAUUACGCAAU | -1.83 ± 0.1 | -1.25 ± 0.13
GCAUAGCAAUAUUACGGCUA | -1.16 ± 0.069 | -0.431 ± 0.069
CUGAAGCAAUAUUACGACGG | -0.289 ± 0.15 | -0.879 ± 0.14
UGGUAGCAAUAUUACGCAAU | -2.59 ± 0.24 | -2.56 ± 0.33
AAGGAGCAAUAUUACGGAAC | – | -2.52 ± 0.36
GUCAAGCAAUAUUACGUAGC | -1.55 ± 0.12 | -1.07 ± 0.15
CUUCAGCAAUAUUACGUCGC | -2.22 ± 0.36 | -2.3 ± 0.42
GGGCAGCAAUAUUACGCCUC | – | -1.42 ± 0.31
GCACAGCAAUAUUACGGCUA | -0.204 ± 0.081 | -0.393 ± 0.085
CAGUAGCAAUAUUACGGCAG | -0.259 ± 0.073 | 0.0185 ± 0.1
UAAUAGCAAUAUUACGGGGC | -3.12 ± 0.31 | -2.84 ± 0.31
GGAAAGCAAUAUUACGGGAA | -2.5 ± 0.36 | -2.92 ± 0.26
CAGCAGCAAUAUUACGUUCA | -2.17 ± 0.2 | -0.173 ± 0.17
UUUUAGCAAUAUUACGCAAU | -2.98 ± 0.41 | –
CGAGAGCAAUAUUACGGUAC | -3.63 ± 0.47 | -0.529 ± 0.28
CGUUAGCAAUAUUACGCAGG | -1.3 ± 0.1 | -1.26 ± 0.16
UCCGAGCAAUAUUACGCUGA | -2.04 ± 0.12 | -1.97 ± 0.14
ACACAGCAAUAUUACGAAUA | -2.21 ± 0.13 | -1.6 ± 0.11
GUUUAGCAAUAUUACGGGUU | – | -2.92 ± 0.35
ACUAAGCAAUAUUACGCGGG | -2.3 ± 0.18 | -1.36 ± 0.15
CUAUAGCAAUAUUACGUAUA | -3.27 ± 0.42 | -2.56 ± 0.37
AACUAGCAAUAUUACGCACC | 0.625 ± 0.17 | -1.48 ± 0.25
GGUAAGCAAUAUUACGGACA | -0.53 ± 0.13 | -0.0615 ± 0.15
